{"source": "patent US20180036364A1", "about": "“METHODS OF TREATING CANCER WITH A PSMA LIGAND-TUBULYSIN COMPOUND” (priority 2015, published 2018)", "type_in_all_cases": "in vivo, human", "key": {"[1]": {"test": "Phase 1 dose-escalation study: toxicity and safety", "experimental": "(§1) This is a Phase 1, multicenter, open-label, non-randomized, dose-escalation oncology study in which EC1169 was dosed three times weekly (TIW), on Weeks 1 and 2 of a 3-week schedule or once weekly dosing (QW) on Weeks 1 and 2 of a 3-week schedule to assess toxicity, safety and preliminary efficacy results in patients with metastatic, castration-resistant prostate cancer (mCRPC) who have progressed on abiraterone and/or enzalutamide, and have been previously treated with a taxane except in cases of contraindication (e.g. poor performance status, age or personal choice). Patients were also dosed with 99mTc-EC0652 and underwent a SPECT/CT scan (or SPECT scan if no SPECT/CT is available) to evaluate EC0652 as an imaging agent to identify PSMA expression.\nPrior dose escalation methodology for both schedules was based the continuous reassessment method (CRM), in which 1 patient is assigned to 1 dose level. Subsequent patients were to be enrolled upon the first observation of DLT, at which time enrollment to that dose level would be expanded to a maximum of 6 patients. An alternative dose escalation methodology for both schedules was based upon the standard “3+3” approach, in which a minimum of 3 patients is enrolled to a given dose level. Following the first observation of a DLT, the dose level is then expanded to a maximum of 6 patients.\nPatients received an injection of 0.1 mg of PSMA Imaging Agent IIa labeled with 20-25 mCi of technetium-^99m (PSMA Imaging Agent Ma). Patients were subjected to SPECT/CT imaging of the region(s) known to contain target lesion(s) approximately 3-4 hours after injection of PSMA Imaging Agent Ma (^99mTc-EC0652). For sites where SPECT/CT imaging is not available, SPECT imaging alone was carried out.\n(§2) II. PSMA-Tubulysin Compound I Administration: PSMA ligand-tubulysin compound I was administered at least 4 days after PSMA Imaging Agent Ma was administered, as an intravenous bolus injection, TIW on Weeks 1 and 2 (i.e., on Days 1, 3, 5, 8, 10, 12 of a 3-week cycle) or once weekly on Weeks 1 and 2 of a 3-week schedule.\nDLTs will be based on events occurring in Part A during the first cycle of therapy and the adverse events must be drug related (i.e. definitely, probably or possibly): • ≧Grade 4 hematological toxicity. • Grade 3 neutropenia with fever>38.5° C. and/or infection requiring antibiotic or antifungal treatment. • Grade 3 neutropenia persisting for >5 days. • Grade 3 thrombocytopenia with clinically significant hemorrhage requiring platelet transfusion. • ≧Grade 3 non-hematological toxicity. Grade 3 laboratory abnormalities (e.g., K or Mg) that persist for less than 48 hours are not considered DLTs. • Grade 3 nausea, vomiting lasting more than 72 hours. • A delay of >2 weeks in the scheduled administration of Compound I due to drug-related toxicity.\n• Schedule #1: TIW Dosing Schedule: Inability to administer at least 4 of the 6 scheduled doses of PSMA ligand-tubulysin compound I in a cycle due to drug-related toxicity. • Schedule #2: Once Weekly Dosing Schedule: Inability to administer both scheduled doses of PSMA ligand-tubulysin compound I in a cycle due to drug-related toxicity.\nPSMA imaging conjugate IIIa and PSMA ligand-tubulysin compound I was administered via IV bolus injection."}, "[2]": {"test_system": "metastatic, castration-resistant prostate cancer (mCRPC)", "test": "Phase 1 dose-escalation study: preliminary efficacy", "settings": "21 mCRPC patients", "description": "In one aspect, a clinical benefit of the patient to treatment with PSMA ligand-tubulysin compound I can be characterized utilizing Response Evaluation Criteria in Solid Tumors (RECIST) criteria. Illustratively, the criteria have been adapted from the original WHO Handbook (3), taking into account the measurement of the longest diameter for all target lesions: complete response, (CR)—the disappearance of all target lesions; partial response (PR)—at least a 30% decrease in the sum of the longest diameter of target lesions, taking as reference the baseline sum longest diameter; stable disease (SD)—neither sufficient shrinkage to qualify for partial response nor sufficient increase to qualify for progressive disease, taking as reference the smallest sum longest diameter since the treatment started; progressive disease (PD)—at least a 20% increase in the sum of the longest diameter of target lesions, taking as reference the smallest sum longest diameter recorded since the treatment started or the appearance of one or more new lesions. In another aspect overall disease response rate (ORR) is a clinical benefit and is calculated as the percent of patients who achieve a best response of CR or PR. Overall disease control rate (DCR) can be another clinical benefit and is calculated as the percent of patients who achieve a best response of CR, PR, or SD. […]"}, "[3]": {"test": "Phase 1 dose-escalation study: pharmacokinetics", "settings": "mCRPC patients, IV bolus", "experimental": "as §1, §2"}, "[4]": {"settings": "21 mCRPC patients, both schedules"}}, "data": [{"smiles": "CCCC(=O)OCN(C(=O)[C@@H](NC(=O)[C@H]1CCCCN1C)C(C)CC)[C@H](C[C@@H](OC(C)=O)c1nc(C(=O)N[C@@H](Cc2ccc(O)cc2)C[C@H](C)C(=O)NNC(=O)OCCSSC[C@H](NC(=O)[C@H](CC(=O)O)NC(=O)[C@H](CC(=O)O)NC(=O)Cc2ccc(CNC(=O)NCCCC[C@H](NC(=O)N[C@@H](CCC(=O)O)C(=O)O)C(=O)O)cc2)C(=O)O)cs1)C(C)C", "note": "(some centres unmarked) [EC1169]", "values": [{"measurement": "DR Grade 3-4 toxicity or serious adverse events", "setting": "[1]; [4]", "result": "no"}, {"measurement": "on-study deaths", "setting": "[1]; [4]", "result": "no"}, {"measurement": "occurrences of dose limiting toxicity", "setting": "[1]; 21 mCRPC patients, both schedules, cycle 1", "result": "no"}, {"measurement": "patients with drug-related (DR) adverse events (AE's)", "setting": "[1]; 21 patients evaluated for cycle 1 toxicity, both schedules, IV bolus", "result": "9 of 21"}, {"measurement": "drug-related adverse events occurring in >1 patient", "setting": "[1]; Schedule #1 (TIW, Weeks 1 and 2 of 3-week cycle), 5 pts", "result": "No DRAE occurred in >1 Schedule #1 patient"}, {"measurement": "drug-related adverse events reported in ≧2 patients", "setting": "[1]; Schedule #2 (once weekly, Weeks 1 and 2 of 3-week cycle), 16 pts", "result": "Vomiting and fatigue were the only DRAE's"}, {"measurement": "tolerability", "setting": "[1]; mCRPC patients", "result": "well tolerated"}, {"measurement": "patients with a 50% decrease in PSA", "setting": "[2]", "result": "No patient"}, {"measurement": "patients with stable disease lasting more than 4 cycles", "setting": "[2]", "result": 3, "unit": "patients"}, {"measurement": "AUC", "setting": "[3]", "result": "Dose proportionate increases"}, {"measurement": "Cmax", "setting": "[3]", "result": "Dose proportionate increases"}]}]}
